Test results reported in patent US20230357348A1 (AstraZeneca / MedImmune, published 2023).
Starred links: 1 amine or outer side, 2 acyl side, 3 side chain; linkers in the order of their positions; H or OH if unused. Non-standard residues stand in square brackets, D forms with d. Groups on a side chain read outwards from the residue. No end group written: not given here. *: point of attachment. C18 diacid = O=C(O)CCCCCCCCCCCCCCCCC(=O)*; γGlu = O=C(O)[C@H](CCC(=O)[*:2])N[*:1]; αMeF = C[C@](N)(Cc1ccccc1)C(=O)O; AEEA = NCCOCCOCC(=O)O; Aib = CC(C)(N)C(=O)O

B1: Peptide 422 (peptide)
peptide: H[Aib]QGTFTSDVSK[αMeF]LDRK([AEEA-AEEA-γGlu-C18 diacid])RAQDFVRWLL[Aib]TE-NH2
modifications: N-terminus assumed
SMILES: CC(C)C[C@H](NC(=O)[C@H](Cc1c[nH]c2ccccc12)NC(=O)[C@H](CCCNC(=N)N)NC(=O)[C@@H](NC(=O)[C@H](Cc1ccccc1)NC(=O)[C@H](CC(=O)O)NC(=O)[C@H](CCC(N)=O)NC(=O)[C@H](C)NC(=O)[C@H](CCCNC(=N)N)NC(=O)[C@H](CCCCNC(=O)COCCOCCNC(=O)COCCOCCNC(=O)CC[C@H](NC(=O)CCCCCCCCCCCCCCCCC(=O)O)C(=O)O)NC(=O)[C@H](CCCNC(=N)N)NC(=O)[C@H](CC(=O)O)NC(=O)[C@H](CC(C)C)NC(=O)[C@](C)(Cc1ccccc1)NC(=O)[C@H](CCCCN)NC(=O)[C@H](CO)NC(=O)[C@@H](NC(=O)[C@H](CC(=O)O)NC(=O)[C@H](CO)NC(=O)[C@@H](NC(=O)[C@H](Cc1ccccc1)NC(=O)[C@@H](NC(=O)CNC(=O)[C@H](CCC(N)=O)NC(=O)C(C)(C)NC(=O)[C@@H](N)Cc1c[nH]cn1)[C@@H](C)O)[C@@H](C)O)C(C)C)C(C)C)C(=O)N[C@@H](CC(C)C)C(=O)NC(C)(C)C(=O)N[C@H](C(=O)N[C@@H](CCC(=O)O)C(N)=O)[C@@H](C)O
B2: Peptide 419 (peptide)
peptide: H[Aib]QGTFTSDVSK[αMeF]LDTK([AEEA-AEEA-γGlu-C18 diacid])RAQDFVRWLE[Aib]E-OH
modifications: N-terminus assumed
SMILES: CC(C)C[C@H](NC(=O)[C@H](Cc1c[nH]c2ccccc12)NC(=O)[C@H](CCCNC(=N)N)NC(=O)[C@@H](NC(=O)[C@H](Cc1ccccc1)NC(=O)[C@H](CC(=O)O)NC(=O)[C@H](CCC(N)=O)NC(=O)[C@H](C)NC(=O)[C@H](CCCNC(=N)N)NC(=O)[C@H](CCCCNC(=O)COCCOCCNC(=O)COCCOCCNC(=O)CC[C@H](NC(=O)CCCCCCCCCCCCCCCCC(=O)O)C(=O)O)NC(=O)[C@@H](NC(=O)[C@H](CC(=O)O)NC(=O)[C@H](CC(C)C)NC(=O)[C@](C)(Cc1ccccc1)NC(=O)[C@H](CCCCN)NC(=O)[C@H](CO)NC(=O)[C@@H](NC(=O)[C@H](CC(=O)O)NC(=O)[C@H](CO)NC(=O)[C@@H](NC(=O)[C@H](Cc1ccccc1)NC(=O)[C@@H](NC(=O)CNC(=O)[C@H](CCC(N)=O)NC(=O)C(C)(C)NC(=O)[C@@H](N)Cc1c[nH]cn1)[C@@H](C)O)[C@@H](C)O)C(C)C)[C@@H](C)O)C(C)C)C(=O)N[C@@H](CCC(=O)O)C(=O)NC(C)(C)C(=O)N[C@@H](CCC(=O)O)C(=O)O
B3: Peptide 421 (peptide)
peptide: H[Aib]QGTFTSDVSK[αMeF]LDRK([AEEA-AEEA-γGlu-C18 diacid])RAQDFVRWLL[Aib]TE-OH
modifications: N-terminus assumed
SMILES: CC(C)C[C@H](NC(=O)[C@H](Cc1c[nH]c2ccccc12)NC(=O)[C@H](CCCNC(=N)N)NC(=O)[C@@H](NC(=O)[C@H](Cc1ccccc1)NC(=O)[C@H](CC(=O)O)NC(=O)[C@H](CCC(N)=O)NC(=O)[C@H](C)NC(=O)[C@H](CCCNC(=N)N)NC(=O)[C@H](CCCCNC(=O)COCCOCCNC(=O)COCCOCCNC(=O)CC[C@H](NC(=O)CCCCCCCCCCCCCCCCC(=O)O)C(=O)O)NC(=O)[C@H](CCCNC(=N)N)NC(=O)[C@H](CC(=O)O)NC(=O)[C@H](CC(C)C)NC(=O)[C@](C)(Cc1ccccc1)NC(=O)[C@H](CCCCN)NC(=O)[C@H](CO)NC(=O)[C@@H](NC(=O)[C@H](CC(=O)O)NC(=O)[C@H](CO)NC(=O)[C@@H](NC(=O)[C@H](Cc1ccccc1)NC(=O)[C@@H](NC(=O)CNC(=O)[C@H](CCC(N)=O)NC(=O)C(C)(C)NC(=O)[C@@H](N)Cc1c[nH]cn1)[C@@H](C)O)[C@@H](C)O)C(C)C)C(C)C)C(=O)N[C@@H](CC(C)C)C(=O)NC(C)(C)C(=O)N[C@H](C(=O)N[C@@H](CCC(=O)O)C(=O)O)[C@@H](C)O
B4: Peptide 425 (peptide)
peptide: H[Aib]QGTFTSDVSK[αMeF]LDKK([AEEA-AEEA-γGlu-C18 diacid])RAQDFVRWLKA[Aib]G-OH
modifications: N-terminus assumed
SMILES: CC(C)C[C@H](NC(=O)[C@H](Cc1c[nH]c2ccccc12)NC(=O)[C@H](CCCNC(=N)N)NC(=O)[C@@H](NC(=O)[C@H](Cc1ccccc1)NC(=O)[C@H](CC(=O)O)NC(=O)[C@H](CCC(N)=O)NC(=O)[C@H](C)NC(=O)[C@H](CCCNC(=N)N)NC(=O)[C@H](CCCCNC(=O)COCCOCCNC(=O)COCCOCCNC(=O)CC[C@H](NC(=O)CCCCCCCCCCCCCCCCC(=O)O)C(=O)O)NC(=O)[C@H](CCCCN)NC(=O)[C@H](CC(=O)O)NC(=O)[C@H](CC(C)C)NC(=O)[C@](C)(Cc1ccccc1)NC(=O)[C@H](CCCCN)NC(=O)[C@H](CO)NC(=O)[C@@H](NC(=O)[C@H](CC(=O)O)NC(=O)[C@H](CO)NC(=O)[C@@H](NC(=O)[C@H](Cc1ccccc1)NC(=O)[C@@H](NC(=O)CNC(=O)[C@H](CCC(N)=O)NC(=O)C(C)(C)NC(=O)[C@@H](N)Cc1c[nH]cn1)[C@@H](C)O)[C@@H](C)O)C(C)C)C(C)C)C(=O)N[C@@H](CCCCN)C(=O)N[C@@H](C)C(=O)NC(C)(C)C(=O)NCC(=O)O
B5: Peptide 423 (peptide)
peptide: H[Aib]QGTFTSDVSK[αMeF]LDKK([AEEA-AEEA-γGlu-C18 diacid])RAQDFVRWLK[Aib]TE-OH
modifications: N-terminus assumed
SMILES: CC(C)C[C@H](NC(=O)[C@H](Cc1c[nH]c2ccccc12)NC(=O)[C@H](CCCNC(=N)N)NC(=O)[C@@H](NC(=O)[C@H](Cc1ccccc1)NC(=O)[C@H](CC(=O)O)NC(=O)[C@H](CCC(N)=O)NC(=O)[C@H](C)NC(=O)[C@H](CCCNC(=N)N)NC(=O)[C@H](CCCCNC(=O)COCCOCCNC(=O)COCCOCCNC(=O)CC[C@H](NC(=O)CCCCCCCCCCCCCCCCC(=O)O)C(=O)O)NC(=O)[C@H](CCCCN)NC(=O)[C@H](CC(=O)O)NC(=O)[C@H](CC(C)C)NC(=O)[C@](C)(Cc1ccccc1)NC(=O)[C@H](CCCCN)NC(=O)[C@H](CO)NC(=O)[C@@H](NC(=O)[C@H](CC(=O)O)NC(=O)[C@H](CO)NC(=O)[C@@H](NC(=O)[C@H](Cc1ccccc1)NC(=O)[C@@H](NC(=O)CNC(=O)[C@H](CCC(N)=O)NC(=O)C(C)(C)NC(=O)[C@@H](N)Cc1c[nH]cn1)[C@@H](C)O)[C@@H](C)O)C(C)C)C(C)C)C(=O)N[C@@H](CCCCN)C(=O)NC(C)(C)C(=O)N[C@H](C(=O)N[C@@H](CCC(=O)O)C(=O)O)[C@@H](C)O
B6: Peptide 420 (peptide)
peptide: H[Aib]QGTFTSDVSK[αMeF]LDKK([AEEA-AEEA-γGlu-C18 diacid])RAQDFVRWLL[Aib]E-NH2
modifications: N-terminus assumed
SMILES: CC(C)C[C@H](NC(=O)[C@H](Cc1c[nH]c2ccccc12)NC(=O)[C@H](CCCNC(=N)N)NC(=O)[C@@H](NC(=O)[C@H](Cc1ccccc1)NC(=O)[C@H](CC(=O)O)NC(=O)[C@H](CCC(N)=O)NC(=O)[C@H](C)NC(=O)[C@H](CCCNC(=N)N)NC(=O)[C@H](CCCCNC(=O)COCCOCCNC(=O)COCCOCCNC(=O)CC[C@H](NC(=O)CCCCCCCCCCCCCCCCC(=O)O)C(=O)O)NC(=O)[C@H](CCCCN)NC(=O)[C@H](CC(=O)O)NC(=O)[C@H](CC(C)C)NC(=O)[C@](C)(Cc1ccccc1)NC(=O)[C@H](CCCCN)NC(=O)[C@H](CO)NC(=O)[C@@H](NC(=O)[C@H](CC(=O)O)NC(=O)[C@H](CO)NC(=O)[C@@H](NC(=O)[C@H](Cc1ccccc1)NC(=O)[C@@H](NC(=O)CNC(=O)[C@H](CCC(N)=O)NC(=O)C(C)(C)NC(=O)[C@@H](N)Cc1c[nH]cn1)[C@@H](C)O)[C@@H](C)O)C(C)C)C(C)C)C(=O)N[C@@H](CC(C)C)C(=O)NC(C)(C)C(=O)N[C@@H](CCC(=O)O)C(N)=O
B7: Peptide 424 (peptide)
peptide: H[Aib]QGTFTSDVSK[αMeF]LDKK([AEEA-AEEA-γGlu-C18 diacid])RAQDFVRWLL[Aib]TK-OH
modifications: N-terminus assumed
SMILES: CC(C)C[C@H](NC(=O)[C@H](Cc1c[nH]c2ccccc12)NC(=O)[C@H](CCCNC(=N)N)NC(=O)[C@@H](NC(=O)[C@H](Cc1ccccc1)NC(=O)[C@H](CC(=O)O)NC(=O)[C@H](CCC(N)=O)NC(=O)[C@H](C)NC(=O)[C@H](CCCNC(=N)N)NC(=O)[C@H](CCCCNC(=O)COCCOCCNC(=O)COCCOCCNC(=O)CC[C@H](NC(=O)CCCCCCCCCCCCCCCCC(=O)O)C(=O)O)NC(=O)[C@H](CCCCN)NC(=O)[C@H](CC(=O)O)NC(=O)[C@H](CC(C)C)NC(=O)[C@](C)(Cc1ccccc1)NC(=O)[C@H](CCCCN)NC(=O)[C@H](CO)NC(=O)[C@@H](NC(=O)[C@H](CC(=O)O)NC(=O)[C@H](CO)NC(=O)[C@@H](NC(=O)[C@H](Cc1ccccc1)NC(=O)[C@@H](NC(=O)CNC(=O)[C@H](CCC(N)=O)NC(=O)C(C)(C)NC(=O)[C@@H](N)Cc1c[nH]cn1)[C@@H](C)O)[C@@H](C)O)C(C)C)C(C)C)C(=O)N[C@@H](CC(C)C)C(=O)NC(C)(C)C(=O)N[C@H](C(=O)N[C@@H](CCCCN)C(=O)O)[C@@H](C)O

Molecular target: human GLP-1 receptor (hGLP-1R) (human, UniProt P43220 24-463)
Test: cell-based or functional assay

| hGLP-1R EC50 (pM) | Binder |
| --- | --- |
| 27.6 | B1 |
| 96.9 | B2 |
| 87.3 | B3 |
| 11.5 | B4 |
| 26.1 | B5 |
| 23.1 | B6 |
| 15.5 | B7 |

Molecular target: human glucagon receptor (hGCGR) (human, UniProt P47871 26-477)
Test: cell-based or functional assay

Sequence of human glucagon receptor (hGCGR) (P47871 26-477): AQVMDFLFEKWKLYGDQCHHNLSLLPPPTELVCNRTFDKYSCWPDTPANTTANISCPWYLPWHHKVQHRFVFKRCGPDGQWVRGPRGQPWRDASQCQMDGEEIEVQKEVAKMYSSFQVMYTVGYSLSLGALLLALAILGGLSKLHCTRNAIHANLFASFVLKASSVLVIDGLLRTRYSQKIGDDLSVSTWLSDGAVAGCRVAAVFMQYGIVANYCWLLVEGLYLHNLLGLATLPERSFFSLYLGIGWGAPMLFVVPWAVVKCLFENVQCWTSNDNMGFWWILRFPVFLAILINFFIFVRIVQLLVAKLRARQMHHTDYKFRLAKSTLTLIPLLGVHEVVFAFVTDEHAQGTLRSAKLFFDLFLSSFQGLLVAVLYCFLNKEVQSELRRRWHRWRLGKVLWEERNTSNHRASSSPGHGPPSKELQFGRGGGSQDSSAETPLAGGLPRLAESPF

| hGluc-R EC50 (pM) | Binder |
| --- | --- |
| 123 | B1 |
| 264 | B2 |
| 180 | B3 |
| 827 | B4 |
| 2220 | B5 |
| 36.9 | B6 |
| 129 | B7 |
